{
  "source": "paper PMC12711028",
  "key": {"[1]": {"molecular_target": "Ss-DAF-2B, isoform B of the insulin receptor homolog Ss-DAF-2 of Strongyloides stercoralis (Strongyloides stercoralis)"}, "[2]": {"molecular_target": "Ss-DAF-2B, isoform B of the insulin receptor homolog Ss-DAF-2 of Strongyloides stercoralis (Strongyloides stercoralis)", "remark": "listed apart in the source"}},
  "data": [
    {"substance": "porcine insulin (ligand)", "values": [
      {"measurement": "feeding rate of S. stercoralis iL3 with porcine insulin; endogenous Ss-DAF-2, isoforms not told apart", "setting": "[1]", "result": 0.7, "unit": "%"},
      {"measurement": "Ss-daf-2 transcript level in iL3 treated with porcine insulin, fold change against control (RT-PCR); no significant effect", "setting": "[2]", "result": 0.9, "unit": "fold"}
    ]},
    {"substance": "human insulin (Hs-INS) (from UniProt P01308 1-110) (ligand)", "values": [
      {"measurement": "feeding rate of S. stercoralis iL3 with human insulin compared with porcine and bovine insulin at equivalent concentrations; endogenous Ss-DAF-2, isoforms not told apart", "setting": "[1]", "result": 72.2, "unit": "%"},
      {"measurement": "Ss-daf-2 transcript level in iL3 treated with human insulin, fold change against control (RT-PCR)", "setting": "[2]", "result": 2.6, "unit": "fold"}
    ]},
    {"substance": "bovine insulin (ligand)", "values": [
      {"measurement": "feeding rate of S. stercoralis iL3 with bovine insulin; endogenous Ss-DAF-2, isoforms not told apart", "setting": "[1]", "result": 38.2, "unit": "%"},
      {"measurement": "Ss-daf-2 transcript level in iL3 treated with bovine insulin, fold change against control (RT-PCR); no significant effect", "setting": "[2]", "result": 1, "unit": "fold"}
    ]}
  ]
}
